Data as given in article PMC3436577 (The Journal of Biological Chemistry, 2012).
One block for each binder: values may come before it.

Assays:
Assay in all cases: pull-down
GST-eIF1 = GST-eIF1 (S. cerevisiae, UniProt P32911 1-108)
[1] = molecular target: c/Nip1-His GAP85 (Δ60–144) (S. cerevisiae, UniProt P32497 1-812, Δ60–144)
c/Nip1-His Box15-2 = c/Nip1-His Box15-2 (S. cerevisiae, UniProt P32497 1-812, I142V | E145W | F146T | D147L | I149R)
c/Nip1-His Box12-WWPW = c/Nip1-His Box12-WWPW (S. cerevisiae, UniProt P32497 1-812, V111W | V112W | K116P | K118W)

GST-eIF1, sequence (P32911 whole entry): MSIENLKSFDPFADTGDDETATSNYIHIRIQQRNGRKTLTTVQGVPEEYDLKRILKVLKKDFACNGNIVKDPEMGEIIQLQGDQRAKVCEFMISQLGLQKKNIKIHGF

fold increase in binding relative to the WT c/Nip1-NTD (GST-eIF1): ~2 fold
B1: c/Nip1-NTD (1–270) Box12-SPW (domain or fragment)
chain: MSRFFSSNYEYDVASSSSEEDLLSSSEEDLLSSSSSESELDQESDDSFFNESESESEADVDSDDSDAKPYGPDWFKKSEFRKQGGGSNKFLKSSNYDSSDEESDEEDGKKVVSSAPEWLLDEMQDVYNKISQAENSDDWLTISNEFDLISRLLVRAQQQNWGTPNIFIKVVAQVEDAVNNTQQADLKNKAVARAYNTTKQRVKKVSRENEDSMAKFRNDPESFDKEPTADLDISANGFTISSSQGNDQAVQEDFFTRLQTIIDSRGKKTV
modifications: 35S-labeled

reduction of eIF5 associated in vivo, relative to WT c/Nip1-His [1]: > 60% | reduction of eIF5 associated in vivo, relative to WT c/Nip1-His (c/Nip1-His Box15-2): > 60% | reduction of eIF5 associated in vivo, relative to WT c/Nip1-His (c/Nip1-His Box12-WWPW): ~30%
B2: eIF5 (natural protein)
chain: MSINICRDNHDPFYRYKMPPIQAKVEGRGNGIKTAVLNVADISHALNRPAPYIVKYFGFELGAQTSISVDKDRYLVNGVHEPAKLQDVLDGFINKFVLCGSCKNPETEIIITKDNDLVRDCKACGKRTPMDLRHKLSSFILKNPPDSVSGSKKKKKAATASANVRGGGLSISDIAQGKSQNAPSDGTGSSTPQHHDEDEDELSRQIKAAASTLEDIEVKDDEWAVDMSEEAIRARAKELEVNSELTQLDEYGEWILEQAGEDKENLPSDVELYKKAAELDVLNDPKIGCVLAQCLFDEDIVNEIAEHNAFFTKILVTPEYEKNFMGGIERFLGLEHKDLIPLLPKILVQLYNNDIISEEEIMRFGTKSSKKFVPKEVSKKVRRAAKPFITWLETAESDDDEEDDE
